Seven molecules from patent EP4786492A1 (Simcere Zaiming Pharmaceutical Co., Ltd., dated 2026) can be followed below.

Test [1] has as its target T1, mouse DLL3 on CHO K1-mDLL3 cells (mouse, UniProt O88516 33-490).
T1 construct: also called mouse DLL3 recombinant cell line
T1 sequence: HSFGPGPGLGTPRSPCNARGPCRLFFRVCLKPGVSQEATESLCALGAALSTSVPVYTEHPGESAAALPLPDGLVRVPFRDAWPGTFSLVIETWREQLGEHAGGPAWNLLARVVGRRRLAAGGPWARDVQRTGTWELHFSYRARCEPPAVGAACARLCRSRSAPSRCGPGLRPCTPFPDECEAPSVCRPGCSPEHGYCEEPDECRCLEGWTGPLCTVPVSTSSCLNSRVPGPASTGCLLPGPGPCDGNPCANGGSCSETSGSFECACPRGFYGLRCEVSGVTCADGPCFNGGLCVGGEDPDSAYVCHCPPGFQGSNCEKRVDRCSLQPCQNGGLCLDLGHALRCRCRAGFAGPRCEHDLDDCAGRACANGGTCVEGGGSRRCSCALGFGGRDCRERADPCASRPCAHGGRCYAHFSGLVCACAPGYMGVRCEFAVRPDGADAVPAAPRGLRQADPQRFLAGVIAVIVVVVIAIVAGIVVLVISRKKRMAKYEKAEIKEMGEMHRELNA
In words: FACS, CHO K1-mDLL3 cells.

The target of test [2] is T2, monkey DLL3 on CHO K1-cyno DLL3 cells (cynomolgus monkey).
T2 construct: also called monkey DLL3 recombinant cell line
T2 chain: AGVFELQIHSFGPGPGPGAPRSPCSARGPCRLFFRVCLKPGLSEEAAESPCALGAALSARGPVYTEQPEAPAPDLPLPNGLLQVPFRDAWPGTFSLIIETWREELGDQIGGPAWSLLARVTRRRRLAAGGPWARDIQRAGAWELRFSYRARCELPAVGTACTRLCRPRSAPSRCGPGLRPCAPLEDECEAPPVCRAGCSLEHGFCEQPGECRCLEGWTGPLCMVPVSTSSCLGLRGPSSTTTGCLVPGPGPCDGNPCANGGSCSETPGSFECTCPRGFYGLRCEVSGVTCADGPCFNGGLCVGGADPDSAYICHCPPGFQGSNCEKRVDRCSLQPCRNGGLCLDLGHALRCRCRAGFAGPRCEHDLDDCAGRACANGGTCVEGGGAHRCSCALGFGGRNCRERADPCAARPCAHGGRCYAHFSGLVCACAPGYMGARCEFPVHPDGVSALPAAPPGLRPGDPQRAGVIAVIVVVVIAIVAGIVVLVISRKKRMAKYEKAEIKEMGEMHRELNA
The test can be described thus: FACS, CHO K1-cyno DLL3 cells. In general terms: Flow cytometry measures light scatter and fluorescence of single cells or particles in a stream.

The target in test [3] is T3, human DLL3 endogenously expressed on SHP77 and NCI-H82 cells (human, UniProt Q9NYJ7 27-618).
T3 construct: whole, on cells; cells endogenously expressing DLL3; also called SHP77 cells; SHP-77 cells
T3 sequence (looked up): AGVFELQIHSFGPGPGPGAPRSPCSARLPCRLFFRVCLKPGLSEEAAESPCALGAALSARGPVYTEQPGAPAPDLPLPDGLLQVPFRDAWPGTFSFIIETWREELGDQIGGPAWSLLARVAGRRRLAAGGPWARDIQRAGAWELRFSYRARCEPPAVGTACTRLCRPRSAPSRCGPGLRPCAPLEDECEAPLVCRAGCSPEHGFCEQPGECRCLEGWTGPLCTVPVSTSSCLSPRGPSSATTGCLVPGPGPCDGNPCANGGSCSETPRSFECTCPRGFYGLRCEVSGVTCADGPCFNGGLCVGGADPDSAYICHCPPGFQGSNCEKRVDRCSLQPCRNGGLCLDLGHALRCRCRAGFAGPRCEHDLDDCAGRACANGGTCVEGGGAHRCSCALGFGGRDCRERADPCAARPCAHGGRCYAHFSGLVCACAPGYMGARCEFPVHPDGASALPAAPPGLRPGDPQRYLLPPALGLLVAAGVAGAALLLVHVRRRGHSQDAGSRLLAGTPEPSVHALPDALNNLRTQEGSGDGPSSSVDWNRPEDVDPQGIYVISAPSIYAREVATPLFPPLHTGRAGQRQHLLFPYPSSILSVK
The test can be described thus: FACS, SHP77 and NCI-H82 cells.

Test [4] addresses T4, human DLL3 on CHO-K1 hDLL3 cells (human, UniProt Q9NYJ7 27-492).
T4 construct: also called human DLL3 recombinant cell line
T4 sequence: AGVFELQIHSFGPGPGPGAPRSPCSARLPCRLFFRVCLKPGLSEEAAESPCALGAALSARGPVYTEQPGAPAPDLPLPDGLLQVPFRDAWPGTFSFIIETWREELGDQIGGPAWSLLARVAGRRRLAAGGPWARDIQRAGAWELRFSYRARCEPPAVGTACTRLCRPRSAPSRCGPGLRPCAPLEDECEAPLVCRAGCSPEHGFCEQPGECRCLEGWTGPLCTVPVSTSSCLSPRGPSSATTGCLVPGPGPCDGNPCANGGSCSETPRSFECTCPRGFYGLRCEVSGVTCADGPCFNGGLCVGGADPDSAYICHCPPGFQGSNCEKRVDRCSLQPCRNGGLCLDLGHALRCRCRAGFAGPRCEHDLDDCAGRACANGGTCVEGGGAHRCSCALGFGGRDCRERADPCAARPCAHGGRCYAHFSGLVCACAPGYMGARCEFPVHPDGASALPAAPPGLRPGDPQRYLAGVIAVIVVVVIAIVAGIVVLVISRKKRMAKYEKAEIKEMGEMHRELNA
The test can be described thus: FACS, CHO-K1 hDLL3 cells.

A further test addresses T5, human DLL3-his protein (human, UniProt Q9NYJ7 27-492).
T5 construct: also called human DLL3 protein; DLL3 antigen protein; not shown: His tag
T5 sequence: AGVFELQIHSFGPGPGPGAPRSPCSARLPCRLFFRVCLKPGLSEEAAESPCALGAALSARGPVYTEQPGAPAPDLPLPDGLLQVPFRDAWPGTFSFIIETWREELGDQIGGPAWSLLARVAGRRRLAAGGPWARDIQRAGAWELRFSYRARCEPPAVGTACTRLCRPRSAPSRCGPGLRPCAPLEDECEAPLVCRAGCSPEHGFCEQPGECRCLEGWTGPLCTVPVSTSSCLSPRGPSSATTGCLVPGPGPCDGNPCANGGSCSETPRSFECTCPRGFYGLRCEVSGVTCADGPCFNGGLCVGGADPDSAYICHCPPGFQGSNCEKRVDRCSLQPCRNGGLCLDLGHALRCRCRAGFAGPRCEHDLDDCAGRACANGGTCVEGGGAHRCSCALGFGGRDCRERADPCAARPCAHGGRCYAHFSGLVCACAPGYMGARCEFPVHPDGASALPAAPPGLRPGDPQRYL
The test can be described thus: ELISA. A general note: In an ELISA, binding on a coated surface is turned into a signal by an enzyme label.

The next test deals with T6, human DLL4 protein (human, UniProt Q9NR61 27-524, limits assumed).
T6 construct: bought protein; construct and tag not described; also called hDLL4
T6 sequence (Q9NR61 27-524 limits assumed): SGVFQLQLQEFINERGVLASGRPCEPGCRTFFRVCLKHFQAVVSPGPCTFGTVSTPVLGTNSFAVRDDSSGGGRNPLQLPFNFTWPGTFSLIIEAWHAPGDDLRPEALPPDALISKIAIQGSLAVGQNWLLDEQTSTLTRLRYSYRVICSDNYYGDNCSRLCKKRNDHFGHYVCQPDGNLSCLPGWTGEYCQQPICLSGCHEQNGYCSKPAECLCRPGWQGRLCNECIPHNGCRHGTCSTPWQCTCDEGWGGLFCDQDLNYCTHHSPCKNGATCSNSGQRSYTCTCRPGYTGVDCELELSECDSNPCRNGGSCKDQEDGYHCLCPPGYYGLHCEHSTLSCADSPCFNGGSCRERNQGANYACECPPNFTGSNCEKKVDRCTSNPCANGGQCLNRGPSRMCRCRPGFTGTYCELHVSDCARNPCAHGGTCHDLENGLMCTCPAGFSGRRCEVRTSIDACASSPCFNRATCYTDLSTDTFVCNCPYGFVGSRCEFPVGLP
In words: ELISA, maximum over 0.1-100 nM.

The next test concerns the target T7, human DLL1 protein (human, UniProt O00548 18-540, limits assumed).
T7 construct: bought protein; construct and tag not described; also called hDLL1
T7 sequence (looked up): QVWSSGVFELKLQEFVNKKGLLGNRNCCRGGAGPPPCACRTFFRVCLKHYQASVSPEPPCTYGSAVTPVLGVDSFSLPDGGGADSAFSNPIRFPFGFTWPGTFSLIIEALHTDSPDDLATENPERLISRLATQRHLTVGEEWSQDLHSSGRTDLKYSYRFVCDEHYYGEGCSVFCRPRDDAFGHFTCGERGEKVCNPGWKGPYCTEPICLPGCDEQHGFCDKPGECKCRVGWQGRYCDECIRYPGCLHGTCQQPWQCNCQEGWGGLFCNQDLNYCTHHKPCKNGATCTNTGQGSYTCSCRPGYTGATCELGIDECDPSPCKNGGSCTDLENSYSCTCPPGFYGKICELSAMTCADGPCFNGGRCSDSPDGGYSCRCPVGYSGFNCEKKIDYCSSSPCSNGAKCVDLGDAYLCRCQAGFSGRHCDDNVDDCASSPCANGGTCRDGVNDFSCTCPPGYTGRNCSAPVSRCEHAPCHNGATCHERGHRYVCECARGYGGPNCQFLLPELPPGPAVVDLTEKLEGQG
The test can be described thus: ELISA, maximum over 0.1-100 nM.

B1: Hab015VL5VH5a-hFc (Fc fusion)
scFv (part 1 of 2): NIQMTQSPSSLSASVGDRVTITCKASENVGTYVSWYQQKPGKSPKLLIYGASNRYTGVPSRFSGSGSGTDFTLTISSLQPEDFATYYCGQFYSFPSTFGGGTKVEIK
scFv (part 2 of 2): EVQLVESGGGLVKPGGSLRLSCVASGITFSNFWMNWVRQAPGKGLEWVGQIRLKSDDYATHYAESVKGRFTISREDSKNTVYLQMNSLKTEDTAVYYCTTGYYFDYWGQGTTVTVSS
notes: humanized mab015, VL-linker-VH-human IgG1 Fc; also called Hab015L5H5a; not shown: linker; human IgG1 Fc fragment
As for B1, the binding result (in test [1]; in test [2]; in test [3]; in test [4]; with human DLL3-his protein) was “binds” each time.

B2: Hab015VL5VH6a-hFc (Fc fusion)
scFv (part 1 of 2): NIQMTQSPSSLSASVGDRVTITCKASENVGTYVSWYQQKPGKSPKLLIYGASNRYTGVPSRFSGSGSGTDFTLTISSLQPEDFATYYCGQFYSFPSTFGGGTKVEIK
scFv (part 2 of 2): EVQLVESGGGLVKPGGSLRLSCAASGITFSNFWMNWVRQAPEKGLEWVGQIRLKSDDYATHYAESVKGRFTISREDSKNTVYLQMNSLKTEDTAVYYCTTGYYFDYWGQGTTVTVSS
notes: humanized mab015, VL-linker-VH-human IgG1 Fc; also called Hab015L5H6a; not shown: linker; human IgG1 Fc fragment
Turning to B2, the binding result (in test [1]; in test [2]; in test [3]; in test [4]; with human DLL3-his protein) was “binds” throughout.

B3: Hab008L1H2a-hFc (Fc fusion)
scFv (part 1 of 2): DIQMTQSPSSLSASVGDRVTITCKASQNVGTAVAWYQQKPGKSPKLLIFSASIRYTGVPSRFSGSGSGTDFTLTISSLQPEDFATYYCQQYSSSPYTFGGGTKVEIK
scFv (part 2 of 2): EVQLVQSGAEVKKPGASVKVSCKASGYTFTDYYMNWVRQAPGQRLEWMGIINPYNSGTSYNQKFRGRVTLTVDKSASTAYMELSSLRSEDTAVYYCSRYDYDYDVEGAMDYWGQGTTVTVSS
notes: humanized mab008, VL-linker-VH-human IgG1 Fc; also called Hab008 humanized molecule; not shown: linker; human IgG1 Fc fragment
As to B3, the binding result in test [1] is reported as “no binding”; in test [2], “binds”; in test [3], “binds”; in test [4], “binds”; with human DLL3-his protein it was “binds”.

B4: Hab008L3H2a-hFc (Fc fusion)
scFv (part 1 of 2): DIVMTQSPDSLAVSLGERATINCKASQNVGTAVAWYQQKPGQSPKLLIFSASIRYTGVPDRFSGSGSGTDFTLTISSLQAEDVAVYYCQQYSSSPYTFGGGTKVEIK
scFv (part 2 of 2): EVQLVQSGAEVKKPGASVKVSCKASGYTFTDYYMNWVRQAPGQRLEWMGIINPYNSGTSYNQKFRGRVTLTVDKSASTAYMELSSLRSEDTAVYYCSRYDYDYDVEGAMDYWGQGTTVTVSS
notes: as for B3
As for B4, the binding result is reported as “no binding” in test [1]; “binds” in test [2]; “binds” in test [3]; “binds” in test [4]; “binds” with human DLL3-his protein.

B5: Hab008L3H5-hFc (Fc fusion)
scFv (part 1 of 2): DIVMTQSPDSLAVSLGERATINCKASQNVGTAVAWYQQKPGQSPKLLIFSASIRYTGVPDRFSGSGSGTDFTLTISSLQAEDVAVYYCQQYSSSPYTFGGGTKVEIK
scFv (part 2 of 2): EVQLVQSGAEVKKPGASVKVSCKASGYTFTDYYMNWVRRAPGQRLEWMGIINPYNGGTSYNQKFRGRVTITVDKSASTAYMELSSLRSEDTAVYYCSRYDYDYDVEGAMDYWGQGTTVTVSS
notes: as for B3
Turning to B5, the binding result in test [1] is recorded as “no binding”; in test [2], “binds”; in test [3] it was “binds”; in test [4] it was “binds”; in the test with human DLL3-his protein it was “binds”.

B6: Hab008L1H5-hFc (Fc fusion)
scFv (part 1 of 2): DIQMTQSPSSLSASVGDRVTITCKASQNVGTAVAWYQQKPGKSPKLLIFSASIRYTGVPSRFSGSGSGTDFTLTISSLQPEDFATYYCQQYSSSPYTFGGGTKVEIK
scFv (part 2 of 2): EVQLVQSGAEVKKPGASVKVSCKASGYTFTDYYMNWVRRAPGQRLEWMGIINPYNGGTSYNQKFRGRVTITVDKSASTAYMELSSLRSEDTAVYYCSRYDYDYDVEGAMDYWGQGTTVTVSS
notes: as for B3
Regarding B6, the binding result in test [1] is “no binding”; in test [2], “binds”; in test [3] it was “binds”; in test [4], “binds”; with human DLL3-his protein, “binds”.

B7: mab011 scFv-hFc (Fc fusion)
scFv (part 1 of 2): DIVLTQSPATLSVTPGDSVSLSCRASQSISNNLHWYQQKSHESPRLLIKYASQSISGIPSRFSGSGSGTDFTLSINSVETEDFGMYFCQQSNSWPWTFGGGTKLEIK
scFv (part 2 of 2): EVQLQQSGPELVKPGASVKISCKASGYTFTDYYMNWVKQSHGKSLEWIGDISPNYGGTNYNQKFKGKATLTVDKSSSTACMELRSLTSEDSAVYYCTRSFYYYGTGYDWYFDVWGTGTTVTVSS
notes: human-murine chimeric scFv-hFc, VL-linker-VH-human IgG1 Fc; not shown: linker; Fc fragment of human IgG1
As for B7, the binding result (in test [2]; with human DLL3-his protein) was “binds” each time. Further, the “Emax of OD450 nm binding value” with human DLL4 protein and with human DLL1 protein was 0.06 OD450 in each case.
